The values below come from US20230406921A1.

Test [1] has as its target CD47 on the surface of human red blood cells (human) (UniProt Q08722). Briefly: FACS, human red blood cells, control antibody, 1000 nM.
The target of test [2] is CD47 on the surface of tumor cells (human) (UniProt Q08722). Briefly: FACS, SKOV-3 tumor cells, control antibody, 100 nM. (In general: Flow cytometry measures light scatter and fluorescence of single cells or particles in a stream.)

In test [1], human IgG4 (antibody) displayed a Binding to human red blood cells (MFI) of 797 MFI. In addition, in test [2], the Binding to tumor cells (MFI) was found to be 4640 MFI.
